{"source": "patent US20090105116A1", "key": {"[1]": {"molecular_target": "eCla4-SLAM", "experiment": "fluorescence titration of sNBD-CaCdc42 (R150K) with eCla4-SLAM in the presence of SAP-SH2 (competition; fit of the apparent Kd against SAP-SH2 concentration)"}, "[2]": {"molecular_target": "T1, CaCdc42 (R150K), sNBD-labeled and GMPPCP-loaded (Candida albicans)", "experiment": "fluorescence titration of 1 µM sNBD-labeled, GMPPCP-loaded CaCdc42 (R150K)"}, "[3]": {"molecular_target": "T1, CaCdc42 (R150K), sNBD-labeled and …", "experiment": "fluorescence cross-titration of sNBD-labeled CaCdc42 (R150K) in the presence of cCla4"}, "[4]": {"molecular_target": "T1, CaCdc42 (R150K), sNBD-labeled and …", "experiment": "fluorescence cross-titration of sNBD-labeled CaCdc42 (R150K) in the presence of 50 µM mCla4"}, "[5]": {"molecular_target": "T1, CaCdc42 (R150K), sNBD-labeled and …", "experiment": "fluorescence cross-titration; mCst20 with cCst20 added, against mCst20 alone"}, "[6]": {"molecular_target": "T1, CaCdc42 (R150K), sNBD-labeled and …", "experiment": "fluorescence cross-titration of sNBD-labeled CaCdc42 (R150K) in the presence of cCst20"}, "[7]": {"molecular_target": "T1, CaCdc42 (R150K), sNBD-labeled and …", "experiment": "fluorescence titration of 1 µM sNBD-labeled, GMPPCP-loaded CaCdc42 (R150K) with the peptide [panel B]"}, "[8]": {"molecular_target": "T1, CaCdc42 (R150K), sNBD-labeled and …", "experiment": "fluorescence titration of 1 µM sNBD-labeled, GMPPCP-loaded CaCdc42 (R150K) with the peptide [panel A]"}, "[9]": {"molecular_target": "T1, CaCdc42 (R150K), sNBD-labeled and …", "experiment": "fluorescence cross-titration; cCst20 with mCst20 added, against cCst20 alone"}, "[10]": {"molecular_target": "T1, CaCdc42 (R150K), sNBD-labeled and …", "experiment": "fluorescence cross-titration of sNBD-labeled CaCdc42 (R150K) in the presence of 50 µM mCst20"}, "[11]": {"molecular_target": "T1, CaCdc42 (R150K), sNBD-labeled and …", "experiment": "fluorescence titration of 1 µM CaCdc42 (R150K) with eCla4-SLAM, no SAP-SH2"}}}
{"binder": "SH2 domain from the SAP protein (protein) GSSHHHHHHSSFNPRGSDAVAVYHGKISRETGEKLLLATGLDGSYLLRDSESVPGVYCLCVLYHGYIYTYRVSQTETGSWSAETAPGVHKRYFRKIKNLISAFQKPDQGIVIPLQYPVEK", "values": [{"measurement": "Ki", "setting": "[1]", "value": 362, "unit": "µM"}]}
{"binder": "GNSGVSGPINFTHKVHVGFDPA (modifications not checked)", "note": "[mCla4, O14427 227-248]", "values": [{"measurement": "Kd", "setting": "[2]", "value": 4.2, "unit": "µM"}, {"measurement": "Kd", "setting": "[3]", "value": 4.1, "unit": "µM"}]}
{"binder": "SGNFTGLPDTWKSLLQHSKITN (modifications not checked)", "note": "[cCla4, O14427 249-270]", "values": [{"measurement": "Kd", "setting": "[2]", "value": 275, "unit": "µM"}, {"measurement": "Kd", "setting": "[4]", "value": 311, "unit": "µM"}]}
{"binder": "EVNIKISTPFNAKHLAHVGIDPDNGNFTGLPDTWKSLLQHSKIT (modifications not checked)", "note": "[mCst20-P-cCla4]", "values": [{"measurement": "Kd", "setting": "[2]", "value": 0.093, "unit": "µM"}]}
{"binder": "VNIKISTPFNAKHLAHVGIDDN (modifications not checked)", "note": "[mCst20, P0CY24 469-490]", "values": [{"measurement": "Kd", "setting": "[2]", "value": 0.43, "unit": "µM"}, {"measurement": "fold enhancement in binding upon addition of the cognate peptide", "setting": "[5]", "value": 5.5, "unit": "fold"}, {"measurement": "Kd", "setting": "[6]", "value": 0.081, "unit": "µM"}, {"measurement": "EC50 (read off the curve)", "setting": "[7]", "value": 0.9, "unit": "µM"}]}
{"binder": "VNIKISTPFNAKHLAHVGIDDNGSYTGLPIEWERLLSASGITKK (modifications not checked)", "note": "[eCst20, P0CY24 469-512]", "values": [{"measurement": "Kd", "setting": "[2]", "value": 0.046, "unit": "µM"}, {"measurement": "EC50 (read off the curve)", "setting": "[8]", "value": 0.5, "unit": "µM"}]}
{"binder": "GGNSGVSGPINFTHKVHVGFDPASGSYTGLPIEWERLLSASGIT (modifications not checked)", "note": "[mCla4-cCst20]", "values": [{"measurement": "Kd", "setting": "[2]", "value": 0.031, "unit": "µM"}]}
{"binder": "EVNIKISTPFNAKHLAHVGIDDNGNFTGLPDTWKSLLQHSKIT (modifications not checked)", "note": "[mCst20-cCla4]", "values": [{"measurement": "Kd", "setting": "[2]", "value": 2.64, "unit": "µM"}]}
{"binder": "GSYTGLPIEWERLLSASGITKK (modifications not checked)", "note": "[cCst20, P0CY24 491-512]", "values": [{"measurement": "Kd", "setting": "[2]", "value": 1160, "unit": "µM"}, {"measurement": "fold enhancement in binding upon addition of the cognate peptide", "setting": "[9]", "value": 5.5, "unit": "fold"}, {"measurement": "Kd", "setting": "[10]", "value": 207, "unit": "µM"}]}
{"binder": "GNSGVSGPINFTHKVHVGFDPASGNFTGLPDTWKSLLQHSKITN (modifications not checked)", "note": "[eCla4, O14427 227-270]", "values": [{"measurement": "Kd", "setting": "[2]", "value": 0.025, "unit": "µM"}, {"measurement": "EC50 (read off the curve)", "setting": "[8]", "value": 0.5, "unit": "µM"}]}
{"binder": "eCla4-SLAM (modifications not checked) peptide: GGNSGFPGPINFTHKVHVGFDRKSLTIYAQVQKNFTGLPDTWKSLLQHSKIT", "values": [{"measurement": "Kd", "setting": "[2]", "value": 0.127, "unit": "µM"}, {"measurement": "EC50 (read off the curve)", "setting": "[11]", "value": 0.7, "unit": "µM"}]}
{"binder": "GGNSGVSGPINFTHKVHVGFDSGSGNFTGLPDTWKSLLQHSKIT (modifications not checked)", "note": "[eCla4-SG, O14427 227-248; O14427 249-270]", "values": [{"measurement": "Kd", "setting": "[2]", "value": 0.067, "unit": "µM"}]}
